Laboratory results taken from patent US20220213196A1 (GRITSTONE BIO, published 2022).
Substitutions are numbered along the chain they refer to.

What was measured:
[1] = molecular target: T1, HLA-A*02:01_… (HLA-PEPTIDE target G8), recombinant soluble complex (human, UniProt P04439 25-297 at identity 0.94); P61769 21-119, enzymatically biotinylated (BirA) for screening and functional assays); assay: BLI Octet, pHLA on streptavidin sensor, 1:1 fit
T1 construct: Also crystallised with Fab G8-P1C11

[2] = molecular target: T1, HLA-A*02:01_… (HLA-PEPTIDE target G8), …; assay: BLI (Octet), biotinylated pHLA on streptavidin sensors; printed under the Fab sensorgrams, the sheet does not say which format or fit gave the bivalent value [cont'd]
[3] = molecular target: T2, HLA-A*01:01_… (G10) on cells (human); assay: flow cytometry histogram, IgG at 30 µg/mL on HLA-A*01:01-transduced K562 cells pulsed with 50 µM …
T2 construct: also called G10-presenting K562 cells; Colo829

[4] = molecular target: T3, HLA-B*35:01_… (HLA-PEPTIDE target G5), recombinant soluble complex (human, UniProt P01889 25-297 at identity 0.94); P61769 21-119, enzymatically biotinylated (BirA) for screening and functional assays); assay: BLI Octet, pHLA on streptavidin sensor, 1:1 fit
[5] = molecular target: T3, HLA-B*35:01_… (HLA-PEPTIDE target G5), …; assay: BLI (Octet), biotinylated pHLA on streptavidin sensors; printed under the Fab sensorgrams, the sheet does not say which format or fit gave the bivalent value [cont'd]
[6] = molecular target: T3, HLA-B*35:01_… (HLA-PEPTIDE target G5), …; assay: scFv PPE ELISA
[7] = molecular target: T4, HLA-A*01:01_… (HLA-PEPTIDE target G2), recombinant soluble complex (human, UniProt P04439-2 25-297; P61769 21-119, enzymatically biotinylated (BirA) for screening and functional assays); assay: BLI (Octet), biotinylated pHLA on streptavidin sensors, Fab in solution
[8] = molecular target: T1, HLA-A*02:01_… (HLA-PEPTIDE target G8), …; assay: BLI (Octet), biotinylated pHLA on streptavidin sensors; printed under the Fab sensorgrams, the sheet does not say which format or fit gave the bivalent value
[9] = molecular target: T4, HLA-A*01:01_… (HLA-PEPTIDE target G2), …; assay: BLI Octet, pHLA on streptavidin sensor, 1:1 fit
[10] = molecular target: HLA-A*01:01_… (G2) on K562 cells (human); assay: flow cytometry, HLA-A*01:01-transduced K562 cells pulsed with target peptide, IgG titration

B1: Fab G8-P5G08 (Fab, V domains shown)
VH: QVQLVQSGAEVKKPGASVKVSCKASGYTFTSNYMHWVRQAPGQGLEWMGWMNPNSGNTGYAQKFQGRVTMTRDTSTSTVYMELSSLRSEDTAVYYCARGLYGDYFLYYGMDVWGQGTTVTVSS
VL: not shown
notes: Fab from HEK293; also called R3G8-P5G08
- Kd [1]: 530 nM
- koff [1]: 0.0528 s⁻¹
- kon [1]: 99700 M⁻¹ s⁻¹
- Apparent KD (bivalent) [2]: 6.65 nM

B2: IgG G10-P1B07 (antibody, V domains shown)
VH: QVQLVQSGAEVKKPGASVKVSCKASGYTFTSYYMHWVRQAPGQGLEWMGIIHPGGGTTSYAQKFQGRVTMTRDTSTSTVYMELSSLRSEDTAVYYCARDKVYGDGFDPWGQGTLVTVSS
VL: DIQMTQSPSSLSASVGDRVTITCRASQSISRWLAWYQQKPGKAPKLLIFDASRLQSGVPSRFSGSGSGTDFTLTISSLQPEDFATYYCQQAEAFPYTFGQGTKVEIK
notes: IgG; also called R3G10-P1B07
- binding result [3]: binds

B3: Fab G5-P1C12 (Fab, V domains shown)
VH: QVQLVQSGAEVKKPGSSVKVSCKASGGTFSNFGVSWLRQAPGQGLEWMGGIIPILGTANYAQKFQGRVTITADESTSTAYMELSSLRSEDTAVYYCATPTNSGYYGPYYYYGMDVWGQGTTVTVSS
VL: B2 VL with R31S, F49Y, D50A, R53T, A91S, E92Y, A93S, F94I, Y96L, Q100G
notes: Fab from HEK293
- Kd [4]: 85.9 nM
- koff [4]: 0.0158 s⁻¹
- Apparent KD (bivalent) [5]: 0.378 nM

B4: scFv G5R4-P1H11 (scFv, V domains shown)
VH: EVQLLESGGGLVKPGGSLRLSCAASGFTFSDYYMSWVRQAPGKGLEWVSYISSSSSYTNYADSVKGRFTISRDDSKNTLYLQMNSLKTEDTAVYYCARDVVANFDYWGQGTLVTVSS
VL: EIVMTQSPATLSVSPGERATLSCRASQSVSSNLAWYQQKPGQAPRLLIYAASARASGIPARFSGSGSGTEFTLTISSLQSEDFAVYYCQQYGSWPRTFGQGTKVEIK
- fold binding to target pHLA over minipool of negative control pHLAs [6]: ≥ 3 fold

B5: scFv G5R4-P2B10 (scFv, V domains shown)
VH: QVQLVQSGAEVKKPGASVKVSCKASGGTFSSYAISWVRQAPGQGLEWMGWMNPDSGSTGYAQRFQGRVTMTRDTSTSTVYMELSSLRSEDTAVYYCARGHSSGWYYYYGMDVWGQGTTVTVSS
VL: not shown
- fold binding to target pHLA over minipool of negative control pHLAs [6]: ≥ 3 fold

B6: Fab G2-P1H11 (Fab, V domains shown)
VH: QVQLVQSGAEVKKPGASVKVSCKASGYTFTNYYMHWVRQAPGQGLEWMGMINPSGGGTSYAQKFQGRVTMTRDTSTSTVYMELSSLRSEDTAVYYCARGNPWELRLDYWGQGTLVTVSS
VL: DIQMTQSPSSLSASVGDRVTITCQASQDISNYLNWYQQKPGKAPKLLIYAASSLQSGVPSRFSGSGSGTDFTLTISSLQPEDFATYYCQQYYSYPFTFGPGTKVDIK
notes: Fab
- Kd [7]: 46.1 nM
- koff [7]: 0.0233 s⁻¹
- kon [7]: 527000 M⁻¹ s⁻¹

B7: Fab G8-P1B03 (Fab, V domains shown)
VH: EVQLLESGGGLVQPGGSLRLSCAASGFTFSDYYMSWVRQAPGKGLEWVSGINWNGGSTGYADSVKGRFTISRDNSKNTLYLQMNSLRAEDTAVYYCARVEQGYDIYYYYYMDVWGKGTTVTVSS
VL: B6 VL with Q24R, D28S, N31S, A50K, Q55E, Y91S, Y94A, F96Y
notes: Fab from HEK293
- Kd [1]: 307 nM
- koff [1]: 0.0511 s⁻¹
- kon [1]: 167000 M⁻¹ s⁻¹
- Apparent KD (bivalent) [8]: 3.54 nM

B8: Fab G2-P2C06 (Fab, V domains shown)
VH: QVQLVQSGAEVKKPGASVKVSCKSSGYSFDSYVVNWVRQAPGQGLEWMGWINPNSGGTNYAQKFQGRVTMTRDTSTSTVYMELSSLRSEDTAVYYCARDWVLDYWGQGTLVTVSS
VL: B6 VL with Q24R, D28T, N31S, Y32W, N34A, Y91S, Y94T
notes: Fab
- Kd [9]: 30.6 nM
- koff [9]: 0.0348 s⁻¹
- kon [9]: 1.14e+06 M⁻¹ s⁻¹

B9: Fab G8-P4F05 (Fab, V domains shown)
VH: B1 VH with T30S, S31N, N32M, M34L, M51I, S55T, N57D, G59N, K63T, T118K
VL: B6 VL with Q24R, D28G, N34A, S53T, Y91S, Y94T, F96L, P100G, D105E
notes: Fab from HEK293; also called R3G8-P4F05
- Kd [1]: 984 nM
- koff [1]: 0.063 s⁻¹
- kon [1]: 64000 M⁻¹ s⁻¹
- Apparent KD (bivalent) [8]: 7.9 nM

B10: IgG G2-P1H11 (antibody, V domains shown)
VH: B6 VH
VL: B6 VL
- binding result [10]: binds

B11: scFv G5R4-P3G05 (scFv, V domains shown)
VH: QVQLVQSGAEVKKPGASVKVSCKASGYTFTNYYMHWVRQAPGQGLEWMGIINPSGGSTSYAQKFQGRVTMTRDTSTSTVYMELSSLRSEDTAVYYCARSWFGGFNYHYYGMDVWGQGTTVTVSS
VL: B6 VL with Q27E, Y32H, A50D, S52L, Y91A, Y92N, Y94F
- fold binding to target pHLA over minipool of negative control pHLAs [6]: ≥ 3 fold

B12: scFv G5R4-P4B01 (scFv, V domains shown)
VH: QVQLVQSGAEVKKPGSSVKVSCKASGGTFSSYAISWVRQAPGQGLEWMGGIIPIVGTANYAQKFQGRVTITADESTSTAYMELSSLRSEDTAVYYCARGGSYYYYGMDVWGQGTTVTVSS
VL: not shown
- fold binding to target pHLA over minipool of negative control pHLAs [6]: ≥ 3 fold

B13: scFv G5R4-P1D06 (scFv, V domains shown)
VH: QVQLVQSGAEVKKPGASVKVSCKASGYTFTSYDINWVRQAPGQGLEWMGWINPNSGDTKYSQKFQGRVTMTRDTSTSTVYMELSSLRSEDTAVYYCARDGTRYYGMDVWGQGTTVTVSS
VL: not shown
- fold binding to target pHLA over minipool of negative control pHLAs [6]: ≥ 3 fold
